According to the supplement of paper PMC10065799, “High-throughput profiling of sequence recognition by tyrosine kinases and SH2 domains using bacterial peptide display” (eLife, 2023):

Assays:
AncSZ = assay: phosphorylation enrichment, bacterial display (enrichment ratio); higher = better substrate or ligand; peptides without Tyr show the background
EPHB1 = EPHB1 (UniProt P54762); assay: as above
EPHB2 = EPHB2 (UniProt P29323); assay: as above
FGFR1 = FGFR1 (UniProt P11362); assay: as above
FGFR3 = FGFR3 (UniProt P22607); assay: as above
FGFR3, sequence (P22607 whole entry, looked up): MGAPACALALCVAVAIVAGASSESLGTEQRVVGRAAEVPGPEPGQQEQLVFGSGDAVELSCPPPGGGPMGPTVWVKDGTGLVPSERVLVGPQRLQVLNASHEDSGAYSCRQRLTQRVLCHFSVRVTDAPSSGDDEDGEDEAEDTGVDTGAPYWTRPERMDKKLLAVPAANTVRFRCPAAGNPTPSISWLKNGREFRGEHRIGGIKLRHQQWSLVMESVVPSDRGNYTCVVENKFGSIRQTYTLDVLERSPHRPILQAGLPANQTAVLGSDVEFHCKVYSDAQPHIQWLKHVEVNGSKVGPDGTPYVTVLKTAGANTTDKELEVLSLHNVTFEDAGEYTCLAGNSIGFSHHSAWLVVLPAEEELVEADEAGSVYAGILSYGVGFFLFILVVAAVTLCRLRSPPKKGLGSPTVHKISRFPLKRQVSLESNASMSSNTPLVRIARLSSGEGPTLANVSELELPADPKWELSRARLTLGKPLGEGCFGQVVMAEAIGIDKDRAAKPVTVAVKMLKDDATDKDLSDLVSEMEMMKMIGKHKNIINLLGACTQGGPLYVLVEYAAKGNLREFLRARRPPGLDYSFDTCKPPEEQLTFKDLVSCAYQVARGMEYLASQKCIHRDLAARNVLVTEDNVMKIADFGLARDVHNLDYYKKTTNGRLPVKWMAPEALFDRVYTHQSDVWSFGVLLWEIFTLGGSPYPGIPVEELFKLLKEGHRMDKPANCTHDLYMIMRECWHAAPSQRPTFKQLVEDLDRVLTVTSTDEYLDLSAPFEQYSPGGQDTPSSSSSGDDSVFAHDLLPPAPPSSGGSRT

Fer (mouse) = assay: as above
Fes = Fes (UniProt P07332); assay: as above
Fes, sequence (P07332 whole entry, looked up): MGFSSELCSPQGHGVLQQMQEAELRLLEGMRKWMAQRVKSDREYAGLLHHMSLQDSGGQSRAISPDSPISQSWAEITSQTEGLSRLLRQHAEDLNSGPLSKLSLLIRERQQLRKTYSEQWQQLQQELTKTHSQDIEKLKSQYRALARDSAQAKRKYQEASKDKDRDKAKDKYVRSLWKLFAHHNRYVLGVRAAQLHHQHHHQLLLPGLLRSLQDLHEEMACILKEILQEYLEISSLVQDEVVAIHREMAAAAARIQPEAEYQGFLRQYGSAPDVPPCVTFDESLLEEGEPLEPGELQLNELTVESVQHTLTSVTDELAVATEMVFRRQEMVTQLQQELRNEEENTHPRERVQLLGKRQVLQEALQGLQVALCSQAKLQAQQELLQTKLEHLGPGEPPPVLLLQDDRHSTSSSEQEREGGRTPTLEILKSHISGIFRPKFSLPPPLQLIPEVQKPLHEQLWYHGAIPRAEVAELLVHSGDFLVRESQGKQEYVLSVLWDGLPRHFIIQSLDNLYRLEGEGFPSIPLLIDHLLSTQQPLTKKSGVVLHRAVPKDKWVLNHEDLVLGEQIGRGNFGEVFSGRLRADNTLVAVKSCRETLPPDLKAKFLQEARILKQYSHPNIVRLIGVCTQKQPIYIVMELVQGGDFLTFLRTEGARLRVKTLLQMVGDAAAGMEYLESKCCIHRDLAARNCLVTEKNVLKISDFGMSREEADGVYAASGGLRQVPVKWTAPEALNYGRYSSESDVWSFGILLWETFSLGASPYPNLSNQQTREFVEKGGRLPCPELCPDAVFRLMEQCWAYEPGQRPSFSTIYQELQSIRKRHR

Fyn = Fyn (UniProt P06241); assay: as above
Fyn, sequence (P06241 whole entry, looked up): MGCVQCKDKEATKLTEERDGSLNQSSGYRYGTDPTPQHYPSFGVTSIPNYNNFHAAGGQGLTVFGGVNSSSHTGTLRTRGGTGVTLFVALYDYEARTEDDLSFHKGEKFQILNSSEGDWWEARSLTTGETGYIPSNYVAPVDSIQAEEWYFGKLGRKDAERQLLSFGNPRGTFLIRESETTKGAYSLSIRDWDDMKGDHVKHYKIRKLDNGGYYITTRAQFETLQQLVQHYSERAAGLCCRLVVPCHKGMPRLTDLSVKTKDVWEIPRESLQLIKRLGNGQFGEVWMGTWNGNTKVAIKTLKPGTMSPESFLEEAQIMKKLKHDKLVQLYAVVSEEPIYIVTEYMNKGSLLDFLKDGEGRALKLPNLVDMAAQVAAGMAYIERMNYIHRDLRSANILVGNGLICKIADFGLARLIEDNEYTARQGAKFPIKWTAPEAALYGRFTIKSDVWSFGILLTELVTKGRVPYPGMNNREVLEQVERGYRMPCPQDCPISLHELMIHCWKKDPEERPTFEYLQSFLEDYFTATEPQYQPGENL

Hck = Hck (UniProt P08631); assay: as above
Hck, sequence (P08631 whole entry, looked up): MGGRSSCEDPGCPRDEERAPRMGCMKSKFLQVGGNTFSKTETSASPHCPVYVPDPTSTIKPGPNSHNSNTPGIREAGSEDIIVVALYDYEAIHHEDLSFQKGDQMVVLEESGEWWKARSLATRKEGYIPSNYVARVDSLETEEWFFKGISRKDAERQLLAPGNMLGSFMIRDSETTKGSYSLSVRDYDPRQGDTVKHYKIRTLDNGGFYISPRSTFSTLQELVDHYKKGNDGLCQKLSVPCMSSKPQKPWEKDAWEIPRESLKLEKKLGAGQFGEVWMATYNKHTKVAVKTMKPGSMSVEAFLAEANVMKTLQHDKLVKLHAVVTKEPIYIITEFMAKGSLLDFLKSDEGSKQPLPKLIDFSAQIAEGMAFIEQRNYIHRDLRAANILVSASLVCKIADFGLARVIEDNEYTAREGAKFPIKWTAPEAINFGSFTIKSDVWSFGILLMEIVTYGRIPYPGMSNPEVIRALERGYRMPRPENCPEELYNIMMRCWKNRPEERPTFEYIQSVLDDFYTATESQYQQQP

Jak2 = Jak2 (UniProt O60674); assay: as above
MERTK = MERTK (UniProt Q12866); assay: as above
c-Abl (mouse) = assay: as above
c-Src = assay: as above
Grb2 SH2 = Grb2 SH2 (UniProt P62993); assay: SH2 binding enrichment of the phosphorylated peptide, bacterial display (enrichment ratio); higher = better substrate or ligand; peptides without Tyr show the background
SHP2-C SH2 = assay: as above
c-Src SH2 = assay: as above
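Throughout, for SH2 binding enrichment of the phosphorylated peptide, bacterial display: peptide library displayed on the E. coli surface as eCPX fusions, selected cells deep-sequenced, score is each peptide's frequency after selection divided by its frequency in the input.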
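Throughout, for phosphorylation enrichment, bacterial display: 11-residue human phosphosite peptides and single-mutation variants displayed on the E. coli surface, counted by deep sequencing, each peptide's frequency after selection divided by its frequency in the unselected input library; frequency after pTyr selection over input frequency; kinase dosed for 20-30% of maximal phosphorylation in three min.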

EPHB2, sequence (P29323 whole entry, looked up): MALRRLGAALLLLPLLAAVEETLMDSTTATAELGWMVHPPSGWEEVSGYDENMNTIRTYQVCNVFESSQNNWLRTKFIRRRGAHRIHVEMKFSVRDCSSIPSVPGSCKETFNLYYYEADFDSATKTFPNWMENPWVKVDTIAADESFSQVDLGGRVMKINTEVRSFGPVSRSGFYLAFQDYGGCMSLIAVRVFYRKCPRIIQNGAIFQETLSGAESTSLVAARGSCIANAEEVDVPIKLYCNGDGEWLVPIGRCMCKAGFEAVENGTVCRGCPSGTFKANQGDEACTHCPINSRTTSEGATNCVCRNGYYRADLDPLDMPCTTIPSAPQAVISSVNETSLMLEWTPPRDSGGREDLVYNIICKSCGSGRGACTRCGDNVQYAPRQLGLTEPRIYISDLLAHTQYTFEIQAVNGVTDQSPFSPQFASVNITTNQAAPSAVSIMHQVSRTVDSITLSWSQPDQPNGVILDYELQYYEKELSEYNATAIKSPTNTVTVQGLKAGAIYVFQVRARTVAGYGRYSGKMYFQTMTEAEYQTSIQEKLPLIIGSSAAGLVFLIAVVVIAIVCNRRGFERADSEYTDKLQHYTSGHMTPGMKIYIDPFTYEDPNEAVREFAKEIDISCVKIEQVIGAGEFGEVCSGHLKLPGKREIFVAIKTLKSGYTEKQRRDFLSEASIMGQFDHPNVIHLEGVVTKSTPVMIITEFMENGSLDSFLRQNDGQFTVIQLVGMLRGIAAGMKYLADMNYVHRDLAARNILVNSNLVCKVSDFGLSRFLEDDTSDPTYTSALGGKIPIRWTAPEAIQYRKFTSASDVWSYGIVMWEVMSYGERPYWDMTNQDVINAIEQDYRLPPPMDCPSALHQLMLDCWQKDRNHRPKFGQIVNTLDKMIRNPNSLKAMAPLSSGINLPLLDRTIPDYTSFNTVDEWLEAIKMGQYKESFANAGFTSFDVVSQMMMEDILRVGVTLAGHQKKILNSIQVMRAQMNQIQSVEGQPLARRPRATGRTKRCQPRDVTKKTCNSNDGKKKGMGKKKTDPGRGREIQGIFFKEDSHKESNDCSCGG
EPHB1, sequence (P54762 whole entry, looked up): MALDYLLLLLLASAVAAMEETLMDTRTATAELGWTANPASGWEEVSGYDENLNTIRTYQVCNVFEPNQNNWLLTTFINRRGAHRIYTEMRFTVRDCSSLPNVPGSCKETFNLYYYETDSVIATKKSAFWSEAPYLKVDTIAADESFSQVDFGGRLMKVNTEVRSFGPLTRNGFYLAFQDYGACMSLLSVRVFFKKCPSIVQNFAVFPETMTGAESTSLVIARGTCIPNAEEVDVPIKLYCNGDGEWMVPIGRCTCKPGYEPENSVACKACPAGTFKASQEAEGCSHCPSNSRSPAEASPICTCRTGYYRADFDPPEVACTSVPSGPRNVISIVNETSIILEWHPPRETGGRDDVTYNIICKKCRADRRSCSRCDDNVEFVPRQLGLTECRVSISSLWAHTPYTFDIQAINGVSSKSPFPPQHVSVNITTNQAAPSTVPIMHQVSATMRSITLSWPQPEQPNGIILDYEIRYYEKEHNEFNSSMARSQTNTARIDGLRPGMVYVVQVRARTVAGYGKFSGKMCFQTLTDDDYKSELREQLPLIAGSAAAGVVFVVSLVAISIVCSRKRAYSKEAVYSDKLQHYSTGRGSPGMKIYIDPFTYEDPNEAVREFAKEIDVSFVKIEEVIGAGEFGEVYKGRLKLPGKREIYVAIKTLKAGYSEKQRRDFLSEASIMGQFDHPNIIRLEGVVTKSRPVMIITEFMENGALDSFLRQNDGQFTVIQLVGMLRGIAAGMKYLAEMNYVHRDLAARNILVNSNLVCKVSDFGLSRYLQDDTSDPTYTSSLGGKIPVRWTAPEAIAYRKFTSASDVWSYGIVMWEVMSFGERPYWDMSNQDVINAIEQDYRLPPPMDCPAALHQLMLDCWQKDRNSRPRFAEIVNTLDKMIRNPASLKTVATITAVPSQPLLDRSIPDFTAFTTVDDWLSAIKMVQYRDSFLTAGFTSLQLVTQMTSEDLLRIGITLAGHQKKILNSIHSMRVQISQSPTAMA

Row | SH2 binding enrichment (Grb2 SH2) | SH2 binding enrichment (SHP2-C SH2) | SH2 binding enrichment (c-Src SH2) | Sequence | phosphorylation enrichment (AncSZ) | phosphorylation enrichment (EPHB1) | phosphorylation enrichment (EPHB2) | phosphorylation enrichment (FGFR1) | phosphorylation enrichment (FGFR3) | phosphorylation enrichment (Fer (mouse)) | phosphorylation enrichment (Fes) | phosphorylation enrichment (Fyn) | phosphorylation enrichment (Hck) | phosphorylation enrichment (Jak2) | phosphorylation enrichment (MERTK) | phosphorylation enrichment (c-Abl (mouse)) | phosphorylation enrichment (c-Src)
1 | 1.21 | 0.88 | 0.762 | TVSSDYLHPQY [CCPG1_Y569_F566S] | 1.28 | 0.43 | 0.531 | 0.528 | 0.54 | 0.442 | 0.681 | 0.365 | 0.407 | 0.536 | 0.315 | 0.521 | 0.355
2 | 0.91 | 0.82 | 0.494 | TQPSPYAVFLF [RPGRIP1_Y823_R827L_YF] | 0.826 | 2.12 | 1.28 | 1.28 | 0.942 | 7.3 | 0.915 | 6.88 | 3.69 | 0.926 | 7.59 | 15.1 | 5.76
3 | 1.08 | 1.01 | 0.706 | IKNSGYISRYL [EIF2AK3_Y585] | 0.558 | 0.443 | 0.406 | 0.513 | 0.531 | 0.376 | 0.711 | 0.4 | 0.33 | 0.538 | 0.404 | 0.558 | 0.448
4 | 0.939 | 0.852 | 0.464 | VLAHKYHGGGG [HBB_Y146_A141V] | 0.376 | 0.354 | 0.362 | 0.349 | 0.352 | 0.366 | 0.498 | 0.366 | 0.405 | 0.434 | 0.352 | 0.405 | 0.363
5 | 0.76 | 0.55 | 0.439 | PSRKDYETFQS [CTNND2_Y1154_P1159S_YF] | 0.853 | 0.91 | 0.792 | 0.769 | 0.751 | 0.518 | 0.977 | 0.845 | 0.54 | 0.553 | 0.614 | 1.94 | 0.729
6 | 0.886 | 0.662 | 0.447 | FSPGSNERETF [NF1_Y2192_Y2192N] | 0.835 | 0.408 | 0.605 | 0.53 | 0.583 | 0.538 | 0.856 | 0.484 | 0.484 | 0.849 | 0.414 | 0.599 | 0.424
7 | 0.916 | 0.571 | 0.562 | EWKNNCPRLRE [OPA1_Y582_Y582C] | 0.9 | 0.492 | 0.582 | 0.508 | 0.654 | 0.433 | 1.13 | 0.395 | 0.472 | 0.81 | 0.415 | 0.592 | 0.411
8 | 1.06 | 0.878 | 0.716 | KWELRYMHSRV [ABCD1_Y281_G277W] | 1.09 | 0.517 | 0.528 | 0.393 | 0.685 | 0.457 | 1.31 | 0.458 | 0.474 | 1.07 | 0.369 | 0.759 | 0.37
9 | 0.735 | 0.639 | 0.564 | EREYKYGAHKY [OAT_Y50_N54K] | 0.626 | 0.376 | 0.452 | 0.414 | 0.441 | 0.398 | 0.625 | 0.369 | 0.392 | 0.509 | 0.436 | 0.571 | 0.359
10 | 0.813 | 0.791 | 0.514 | NNDLCYWVPEL [IARS1_Y434] | 2.86 | 4.43 | 5.52 | 5.92 | 5.02 | 0.643 | 1.22 | 1.92 | 2.13 | 3.15 | 4.55 | 8.63 | 2.17
11 | 0.757 | 0.914 | 0.567 | TVDASYCGGRG [ANTXR2_Y380_Y381C] | 0.558 | 0.393 | 0.516 | 0.496 | 0.437 | 0.402 | 0.695 | 0.383 | 0.436 | 0.558 | 0.452 | 0.465 | 0.351
12 | 0.775 | 0.531 | 0.478 | TIMTNYNPNFC [ALK_Y1092_D1091N_YF] | 0.987 | 0.43 | 0.784 | 0.576 | 0.694 | 0.512 | 1.06 | 0.545 | 0.5 | 0.865 | 0.485 | 0.716 | 0.533
13 | 1.15 | 1.09 | 0.844 | AGREIYESEKC [TTN_Y4424_D4427E] | 0.856 | 0.427 | 0.585 | 0.535 | 0.638 | 0.47 | 0.925 | 0.525 | 0.495 | 0.846 | 0.547 | 0.708 | 0.59
14 | 1.01 | 0.718 | 0.572 | ATFRGYDSDNP [MMUT_Y146_H143Y_YF] | 0.904 | 0.424 | 0.513 | 0.571 | 0.531 | 0.553 | 0.896 | 0.51 | 0.528 | 0.811 | 0.373 | 0.666 | 0.425
15 | 0.984 | 0.705 | 0.714 | SSDKVCAHQMV [MLH1_Y379_Y379C] | 0.587 | 0.379 | 0.443 | 0.397 | 0.536 | 0.356 | 0.606 | 0.388 | 0.4 | 0.563 | 0.859 | 0.587 | 0.361
16 | 0.983 | 0.709 | 0.683 | SAEEDYIADAK [KCNT1_Y876_M877I] | 1.22 | 0.602 | 0.703 | 0.617 | 0.797 | 0.608 | 1.48 | 0.515 | 0.554 | 1.2 | 0.456 | 0.931 | 0.608
17 | 0.732 | 0.578 | 0.59 | LNSFIYSLRNR [OR1A1_Y288_P285S] | 1.3 | 0.617 | 0.653 | 0.618 | 0.671 | 0.693 | 2.02 | 2.42 | 3.1 | 1.02 | 0.733 | 0.866 | 4.01
18 | 1.71 | 2.06 | 1.7 | QRIHNYYEHRY [HCN4_Y554_D553N] | 1.36 | 2.91 | 2.88 | 3.79 | 3.62 | 0.65 | 1.63 | 0.68 | 1.33 | 0.724 | 1.62 | 0.791 | 0.769
19 | 0.989 | 0.646 | 0.738 | DPKFHYDNTAG [KDR_Y1214] | 0.667 | 0.373 | 0.422 | 0.467 | 0.489 | 0.401 | 0.79 | 0.524 | 0.496 | 0.698 | 0.505 | 0.497 | 0.547
20 | 1.03 | 1 | 0.621 | LMIKEYLTKEL [BAG3_Y457_E455K] | 0.867 | 0.524 | 0.612 | 0.437 | 0.72 | 0.491 | 1.36 | 0.469 | 0.571 | 0.896 | 0.411 | 0.666 | 0.353
21 | 0.879 | 0.798 | 0.536 | SFGMVYEGNAR [INSR_Y1038] | 0.629 | 0.479 | 0.413 | 0.41 | 0.474 | 0.377 | 0.775 | 0.526 | 0.784 | 0.672 | 0.323 | 0.616 | 0.966
22 | 0.97 | 0.544 | 0.425 | PPQFSYGLQTQ [SRA1_Y35] | 0.466 | 0.333 | 0.584 | 0.586 | 0.308 | 0.286 | 0.604 | 0.346 | 0.443 | 0.433 | 0.467 | 0.483 | 0.426
23 | 0.85 | 0.706 | 0.612 | TISPFYRQSLF [CRYAA_Y48_YF] | 0.648 | 0.435 | 0.528 | 0.448 | 0.489 | 0.369 | 0.76 | 0.437 | 0.396 | 0.693 | 0.467 | 0.49 | 0.395
24 | 0.772 | 0.657 | 0.446 | TLQWMYGCDVG [HLA-B_Y123_S121W] | 1.2 | 0.744 | 0.661 | 0.396 | 0.814 | 0.566 | 1.34 | 0.437 | 0.485 | 1.22 | 0.38 | 1.05 | 0.354
25 | 0.866 | 0.814 | 0.572 | FLAATYPTLGQ [NF1_Y2508_V2511L_YF] | 0.572 | 0.723 | 0.4 | 0.424 | 0.572 | 0.4 | 0.674 | 0.422 | 0.389 | 0.523 | 0.356 | 0.549 | 0.404
26 | 0.688 | 0.848 | 1.24 | PSPMPYASCQM [FOXL2_Y215] | 1.28 | 0.631 | 0.65 | 0.671 | 0.625 | 1 | 1.07 | 0.519 | 0.661 | 0.98 | 0.608 | 0.666 | 0.865
27 | 0.932 | 0.76 | 0.572 | VRLTEYPCAGL | 0.638 | 0.456 | 0.457 | 0.396 | 0.523 | 0.381 | 0.781 | 0.358 | 0.428 | 0.673 | 0.367 | 0.527 | 0.398
28 | 0.996 | 0.707 | 0.598 | GKVFIYHGSSL [ITGA7_Y458] | 1.19 | 0.655 | 0.614 | 0.596 | 0.761 | 0.546 | 1.3 | 0.42 | 0.571 | 1.02 | 0.364 | 0.672 | 0.369

Row | Sequence | SH2 binding enrichment (Grb2 SH2) | SH2 binding enrichment (SHP2-C SH2) | SH2 binding enrichment (c-Src SH2) | phosphorylation enrichment (AncSZ) | phosphorylation enrichment (EPHB1) | phosphorylation enrichment (EPHB2) | phosphorylation enrichment (FGFR1) | phosphorylation enrichment (FGFR3) | phosphorylation enrichment (Fer (mouse)) | phosphorylation enrichment (Fes) | phosphorylation enrichment (Fyn) | phosphorylation enrichment (Hck) | phosphorylation enrichment (Jak2) | phosphorylation enrichment (MERTK) | phosphorylation enrichment (c-Abl (mouse)) | phosphorylation enrichment (c-Src)
29 | SVVVPYEPPEV [TP53_Y220] | 1.01 | 1.11 | 0.888 | 1.25 | 0.532 | 0.645 | 0.548 | 0.748 | 0.556 | 1.16 | 0.502 | 0.55 | 1 | 0.531 | 0.798 | 0.459
